The text below walks through data of article doi:10.1101/2022.05.04.490172.

This data set has as its target T1, BRN2 DNA-binding domain (BRN2-DBD) (Homo sapiens, UniProt P20265 264-415).
T1 sequence: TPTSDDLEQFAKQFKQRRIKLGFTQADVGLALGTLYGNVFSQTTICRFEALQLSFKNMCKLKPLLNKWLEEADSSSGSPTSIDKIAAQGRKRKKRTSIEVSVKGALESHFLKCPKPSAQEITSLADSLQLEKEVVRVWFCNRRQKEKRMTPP
In words: X-ray crystallography.

B1: MORE DNA (dsDNA)
DNA 1: GTATGCAAATAAG
DNA 2: CTTATTTGCATAC
Regarding B1, the binding result is “binds”.
